Among the targets are MAGI3_6, Q5TCQ9; MAGI1_5, Q96QZ7; PARD3B_3, Q8TEW8; MAGI3_4, Q5TCQ9; IL16_2, Q14005; AHNAK2, Q8IVF2; CARD14, Q9BXL6; LNX1_4, Q8TBB1; CNKSR3, Q6P9H4.
Common to all, as to experiment: holdup assay
Common to all, as to details: plain residues with an end cap or a label only (N-terminal biotin on a linker: (peg)3)

For a further experiment, the target named is T1, INTU, Q9ULD6.
T1 sequence (Q9ULD6 180-273, limits assumed, looked up): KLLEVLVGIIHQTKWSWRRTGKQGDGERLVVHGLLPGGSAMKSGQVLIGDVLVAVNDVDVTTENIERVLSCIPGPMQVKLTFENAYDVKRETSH

Another experiment has as its target T2, MLLT4, P55196.
T2 sequence (P55196 1002-1103, limits assumed, looked up): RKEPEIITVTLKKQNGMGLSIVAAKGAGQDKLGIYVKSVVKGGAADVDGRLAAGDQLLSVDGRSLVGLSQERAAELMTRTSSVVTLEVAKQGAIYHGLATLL

In a further experiment the target is T3, NHERF1_1, O14745.
T3 sequence (O14745 9-104, limits assumed, looked up): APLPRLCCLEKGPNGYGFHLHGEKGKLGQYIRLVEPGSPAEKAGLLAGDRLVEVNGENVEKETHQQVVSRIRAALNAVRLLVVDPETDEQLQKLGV

A further experiment has as its target T4, MPDZ_3, O75970.
T4 sequence (O75970 372-473, limits assumed, looked up): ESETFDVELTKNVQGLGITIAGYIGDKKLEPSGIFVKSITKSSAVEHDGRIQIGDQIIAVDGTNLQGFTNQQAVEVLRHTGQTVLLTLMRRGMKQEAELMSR

For another experiment, the target named is T5, MPDZ_6, O75970.
T5 sequence (O75970 1003-1099, limits assumed, looked up): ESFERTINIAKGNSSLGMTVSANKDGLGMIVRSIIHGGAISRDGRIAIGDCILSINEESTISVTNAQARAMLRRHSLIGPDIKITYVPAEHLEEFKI

The target of the next experiment is T6, PDZD2_5, O15018.
T6 sequence (O15018 2617-2716, limits assumed, looked up): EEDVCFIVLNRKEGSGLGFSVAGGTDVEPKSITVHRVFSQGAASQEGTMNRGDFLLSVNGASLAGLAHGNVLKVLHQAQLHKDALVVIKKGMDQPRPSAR

A further experiment has as its target T7, NHERF3_2, Q5T2W1.
T7 sequence (Q5T2W1 129-225, limits assumed, looked up): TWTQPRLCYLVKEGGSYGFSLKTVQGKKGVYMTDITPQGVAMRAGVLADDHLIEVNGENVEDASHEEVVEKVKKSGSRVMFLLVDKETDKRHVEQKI

For a further experiment, the target named is T8, DVL1, O14640.
T8 sequence (O14640 246-333, limits assumed, looked up): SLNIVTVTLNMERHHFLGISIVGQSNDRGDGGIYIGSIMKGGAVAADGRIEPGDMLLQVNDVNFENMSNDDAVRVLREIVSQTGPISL

The next experiment deals with T9, SHROOM3, Q8TF72.
T9 sequence (Q8TF72 20-120, limits assumed, looked up): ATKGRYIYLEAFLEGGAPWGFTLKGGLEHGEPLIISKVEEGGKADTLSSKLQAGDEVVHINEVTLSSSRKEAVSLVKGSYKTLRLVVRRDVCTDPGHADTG

A further experiment concerns the target T10, PTPN13_5, Q12923.
T10 sequence (Q12923 1877-1975, limits assumed, looked up): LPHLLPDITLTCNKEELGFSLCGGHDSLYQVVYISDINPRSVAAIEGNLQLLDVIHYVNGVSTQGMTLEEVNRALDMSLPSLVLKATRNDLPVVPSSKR

In another experiment the target is T11, USH1C_3, Q9Y6N9.
T11 sequence (Q9Y6N9 447-547, limits assumed, looked up): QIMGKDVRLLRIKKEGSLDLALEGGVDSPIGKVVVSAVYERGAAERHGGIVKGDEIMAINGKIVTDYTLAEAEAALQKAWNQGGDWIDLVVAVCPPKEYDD

The target of a further experiment is T12, MPDZ_7, O75970.
T12 sequence (O75970 1146-1253, limits assumed, looked up): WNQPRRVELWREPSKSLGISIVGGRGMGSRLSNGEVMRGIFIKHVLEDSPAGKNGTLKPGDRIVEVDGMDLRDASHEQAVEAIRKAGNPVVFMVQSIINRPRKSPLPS

The next experiment has as its target T13, PDZD2_6, O15018.
T13 sequence (O15018 2745-2839, limits assumed, looked up): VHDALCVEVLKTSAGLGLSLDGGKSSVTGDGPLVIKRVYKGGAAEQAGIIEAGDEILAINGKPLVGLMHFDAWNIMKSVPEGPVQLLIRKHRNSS

A further experiment concerns the target T14, PTPN13_4, Q12923.
T14 sequence (Q12923 1783-1878, limits assumed, looked up): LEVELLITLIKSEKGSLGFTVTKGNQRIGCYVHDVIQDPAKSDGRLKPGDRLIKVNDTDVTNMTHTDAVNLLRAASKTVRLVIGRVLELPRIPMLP

Results on one molecule are retold here after article PMC9482650, “Quantitative fragmentomics allow affinity mapping of interactomes” (Nature Communications, 2022).

Chain of CNKSR3, Q6P9H4 (Q6P9H4 203-303): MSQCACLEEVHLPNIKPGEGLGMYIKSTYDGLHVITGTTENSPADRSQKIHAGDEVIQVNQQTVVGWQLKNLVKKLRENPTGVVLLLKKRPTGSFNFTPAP
Chain of AHNAK2, Q8IVF2 (Q8IVF2 108-193): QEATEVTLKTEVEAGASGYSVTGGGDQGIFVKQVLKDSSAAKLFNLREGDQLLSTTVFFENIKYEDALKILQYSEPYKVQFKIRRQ
Chain of MAGI3_4, Q5TCQ9 (Q5TCQ9 716-815): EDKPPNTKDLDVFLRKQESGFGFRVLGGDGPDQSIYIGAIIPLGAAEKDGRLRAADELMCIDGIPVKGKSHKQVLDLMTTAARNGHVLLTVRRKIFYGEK
Chain of CARD14, Q9BXL6 (Q9BXL6 558-663): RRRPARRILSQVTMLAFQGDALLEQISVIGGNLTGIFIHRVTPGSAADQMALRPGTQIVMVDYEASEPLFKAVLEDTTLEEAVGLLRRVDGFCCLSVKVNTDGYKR
Chain of LNX1_4, Q8TBB1 (Q8TBB1 631-726): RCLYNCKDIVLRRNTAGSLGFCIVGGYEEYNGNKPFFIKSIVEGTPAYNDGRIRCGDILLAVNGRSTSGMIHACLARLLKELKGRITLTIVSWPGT
Chain of MAGI3_6, Q5TCQ9 (Q5TCQ9 1014-1103): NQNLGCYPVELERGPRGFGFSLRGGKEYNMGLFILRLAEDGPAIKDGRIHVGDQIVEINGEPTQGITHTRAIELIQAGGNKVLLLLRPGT
Chain of MAGI1_5, Q96QZ7 (Q96QZ7 986-1098): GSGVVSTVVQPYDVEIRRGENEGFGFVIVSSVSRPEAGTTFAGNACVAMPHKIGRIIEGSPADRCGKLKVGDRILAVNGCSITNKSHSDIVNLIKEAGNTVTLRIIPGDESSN
Chain of PARD3B_3, Q8TEW8 (Q8TEW8 490-594): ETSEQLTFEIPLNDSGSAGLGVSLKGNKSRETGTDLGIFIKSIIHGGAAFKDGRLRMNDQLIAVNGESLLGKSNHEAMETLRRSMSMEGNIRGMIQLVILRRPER
Chain of IL16_2, Q14005 (Q14005 350-450): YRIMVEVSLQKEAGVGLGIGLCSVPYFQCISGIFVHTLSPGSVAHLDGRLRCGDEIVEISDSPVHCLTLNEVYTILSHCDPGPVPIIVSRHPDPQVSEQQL

As for NLNSSEGVPDLLV [SARS-CoV-E, P59637], the negative logarithm of the Kd (pKd) result was “below the threshold” with INTU, Q9ULD6; 4.31 with MLLT4, P55196; “below the threshold” with NHERF1_1, O14745; “below the threshold” with MAGI3_6, Q5TCQ9; “below the threshold” with MPDZ_3, O75970; “below the threshold” with MAGI1_5, Q96QZ7. For the same molecule, the pKd result is reported as “below the threshold” with MPDZ_6, O75970; “below the threshold” with PARD3B_3, Q8TEW8; “below the threshold” with PDZD2_5, O15018; “below the threshold” with NHERF3_2, Q5T2W1; “below the threshold” with DVL1, O14640; “below the threshold” in the experiment with MAGI3_4, Q5TCQ9. For the same molecule, the pKd result in the experiment with SHROOM3, Q8TF72 is “below the threshold”; in the experiment with PTPN13_5, Q12923, “below the threshold”; in the experiment with IL16_2, Q14005 it was “below the threshold”; in the experiment with USH1C_3, Q9Y6N9, “below the threshold”; in the experiment with MPDZ_7, O75970, “below the threshold”; with PDZD2_6, O15018, 4.26. For the same molecule, the pKd entry with AHNAK2, Q8IVF2 is “below the threshold”; with PTPN13_4, Q12923 it was 4.64; in the experiment with CARD14, Q9BXL6 it was “below the threshold”; with LNX1_4, Q8TBB1, “below the threshold”; with CNKSR3, Q6P9H4, “below the threshold”.

The pKd is the negative decadic logarithm of the Kd, by convention in mol/L.
